Laboratory results: patent US20160222085A1 (CHILDREN S HOSPITAL OF PHILADELPHIA, published 2016)
Ends that are not written are not given here.

Columns and labels:
[1] = target: T1, FV-810 (FV-DT), Factor V with amino acids 811-1491 deleted from the B-domain (human, UniProt P12259 29-838; P12259 1520-2224); experiment: fluorescence anisotropy; FV-810 titrated into 20 or 40 nM OG488-BR, 50 uM PCPS, 25 C
T1 construct: range 1-810;range 1492-2196; Single-chain cofactor-like variant; All residue numbers count on mature Factor V (add 28 for the precursor)
T1 sequence (P12259 other isoform, or with tags, fused parts or gaps, form in doubt): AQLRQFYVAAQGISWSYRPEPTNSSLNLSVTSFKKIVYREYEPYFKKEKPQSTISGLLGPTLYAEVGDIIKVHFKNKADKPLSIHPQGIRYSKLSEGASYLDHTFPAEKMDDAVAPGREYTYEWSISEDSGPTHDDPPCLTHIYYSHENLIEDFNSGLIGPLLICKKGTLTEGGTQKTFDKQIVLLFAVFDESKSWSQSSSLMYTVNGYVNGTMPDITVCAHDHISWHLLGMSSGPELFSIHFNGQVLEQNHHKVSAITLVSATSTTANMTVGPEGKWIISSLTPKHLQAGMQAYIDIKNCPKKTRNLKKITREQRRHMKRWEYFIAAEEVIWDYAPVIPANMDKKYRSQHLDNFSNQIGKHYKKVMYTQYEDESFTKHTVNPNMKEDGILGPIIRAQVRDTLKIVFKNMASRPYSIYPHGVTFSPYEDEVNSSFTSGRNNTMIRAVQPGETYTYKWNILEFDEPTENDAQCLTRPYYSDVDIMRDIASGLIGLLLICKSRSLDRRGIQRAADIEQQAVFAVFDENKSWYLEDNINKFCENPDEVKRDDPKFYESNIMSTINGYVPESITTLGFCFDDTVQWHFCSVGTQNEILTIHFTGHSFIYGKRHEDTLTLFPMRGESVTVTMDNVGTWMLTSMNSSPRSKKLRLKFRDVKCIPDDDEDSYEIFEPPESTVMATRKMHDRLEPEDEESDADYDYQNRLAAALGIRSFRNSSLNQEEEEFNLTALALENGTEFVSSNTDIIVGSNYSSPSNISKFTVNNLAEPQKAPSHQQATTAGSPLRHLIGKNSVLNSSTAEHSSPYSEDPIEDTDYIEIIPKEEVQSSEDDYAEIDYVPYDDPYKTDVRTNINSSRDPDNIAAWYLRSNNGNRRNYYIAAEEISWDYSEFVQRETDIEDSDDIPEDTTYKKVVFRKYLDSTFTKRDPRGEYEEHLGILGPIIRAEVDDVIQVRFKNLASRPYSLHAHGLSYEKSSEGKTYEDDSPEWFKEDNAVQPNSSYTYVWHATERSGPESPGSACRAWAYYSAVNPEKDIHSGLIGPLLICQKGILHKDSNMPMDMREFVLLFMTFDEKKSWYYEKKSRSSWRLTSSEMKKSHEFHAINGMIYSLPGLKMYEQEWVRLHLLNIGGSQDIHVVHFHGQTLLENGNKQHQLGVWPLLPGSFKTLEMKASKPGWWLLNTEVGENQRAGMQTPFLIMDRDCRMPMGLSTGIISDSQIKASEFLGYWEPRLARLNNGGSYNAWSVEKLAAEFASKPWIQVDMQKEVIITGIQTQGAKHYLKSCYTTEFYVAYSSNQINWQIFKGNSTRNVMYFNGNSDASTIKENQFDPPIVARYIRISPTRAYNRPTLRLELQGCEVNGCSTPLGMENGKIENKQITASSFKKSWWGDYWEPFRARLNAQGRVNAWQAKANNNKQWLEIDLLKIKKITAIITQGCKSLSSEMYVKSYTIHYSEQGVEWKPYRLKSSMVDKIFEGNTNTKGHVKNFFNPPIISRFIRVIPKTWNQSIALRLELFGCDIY
Procedure: Control experiments were performed by titrating FV-810 into buffer containing 10 mM EDTA (X) or by titrating rFVa (▴).
(§1) Steady-state fluorescence anisotropy was measured at 25° C. in a PTI Quanta-Master™ fluorescence spectrophotometer (Photon Technology International, Birmingham, N.J.) using excitation and emission wavelengths of 480 and 520 nm, respectively, with long-pass filters (KV500, CVI Melles Griot) in the emission beam.
Data were analyzed by nonlinear least squares regression analysis using the Marquardt algorithm (Bevington et al. (1992) Data Reduction and Error Analysis for the Physical Sciences, pp. 141-167, McGraw-Hill, New York), and the quality of each fit was assessed as described (Straume et al. (1992) Methods Enzymol., 210:87-105).

[2] = target: T1, FV-810 (FV-DT), Factor V with amino …; experiment: fluorescence anisotropy; buffer-pretreated protein titrated into 30 nM OG488-BR, 50 uM PCPS; n=1 assumed
Procedure: (§2) FV-810, FV-810^R709Q (▴), FV-810^R1545Q (♦), and FV-810^QQ (▪) were pretreated with buffer (FIG. 14A) or thrombin (FIG. 14B).
as §1

FV-810^R709Q = target: T2, FV-810^R709Q (human, UniProt P12259 29-838; P12259 1520-2224); experiment: as above
T2 construct: range 1-810;range 1492-2196; mature numbering
T2 sequence (P12259 other isoform, or with tags, fused parts or gaps R709Q R709Q): as the sequence (P12259 other isoform, or with tags, fused parts or gaps, form in doubt) above, with R709Q counted along it
Procedure: as §2, §1

FV-810^R1545Q = target: T3, FV-810^R1545Q (human, UniProt P12259 29-838; P12259 1520-2224); experiment: as above
T3 construct: range 1-810;range 1492-2196; mature numbering
T3 sequence (P12259 other isoform, or with tags, fused parts or gaps R1545Q R1545Q): as the sequence (P12259 other isoform, or with tags, fused parts or gaps, form in doubt) above, with R864Q counted along it
Procedure: as §2, §1

FV-810^QQ [3] = target: T4, FV-810^QQ (human, UniProt P12259 29-838; P12259 1520-2224); experiment: as above
T4 construct: range 1-810;range 1492-2196; Both thrombin sites (Arg709 and Arg1545) changed to Gln; the assay field says where thrombin pretreatment was used
T4 sequence (P12259 other isoform, or with tags, fused parts or gaps): as the sequence (P12259 other isoform, or with tags, fused parts or gaps, form in doubt) above, with R709Q, R864Q counted along it
Procedure: as §2, §1

[4] = target: T5, FV-810^R1545Q pretreated with thrombin (human, UniProt P12259 29-737; P12259 738-838; P12259 1520-2224); experiment: fluorescence anisotropy; thrombin-pretreated protein titrated into 30 nM OG488-BR, 50 uM PCPS; n=1 assumed
T5 construct: Cleaved only at Arg709: B-domain remnant stays tethered to the light chain; also called thrombin-cleaved FV-810^R1545Q
T5 sequence (P12259 29-737, chain 1 of 2): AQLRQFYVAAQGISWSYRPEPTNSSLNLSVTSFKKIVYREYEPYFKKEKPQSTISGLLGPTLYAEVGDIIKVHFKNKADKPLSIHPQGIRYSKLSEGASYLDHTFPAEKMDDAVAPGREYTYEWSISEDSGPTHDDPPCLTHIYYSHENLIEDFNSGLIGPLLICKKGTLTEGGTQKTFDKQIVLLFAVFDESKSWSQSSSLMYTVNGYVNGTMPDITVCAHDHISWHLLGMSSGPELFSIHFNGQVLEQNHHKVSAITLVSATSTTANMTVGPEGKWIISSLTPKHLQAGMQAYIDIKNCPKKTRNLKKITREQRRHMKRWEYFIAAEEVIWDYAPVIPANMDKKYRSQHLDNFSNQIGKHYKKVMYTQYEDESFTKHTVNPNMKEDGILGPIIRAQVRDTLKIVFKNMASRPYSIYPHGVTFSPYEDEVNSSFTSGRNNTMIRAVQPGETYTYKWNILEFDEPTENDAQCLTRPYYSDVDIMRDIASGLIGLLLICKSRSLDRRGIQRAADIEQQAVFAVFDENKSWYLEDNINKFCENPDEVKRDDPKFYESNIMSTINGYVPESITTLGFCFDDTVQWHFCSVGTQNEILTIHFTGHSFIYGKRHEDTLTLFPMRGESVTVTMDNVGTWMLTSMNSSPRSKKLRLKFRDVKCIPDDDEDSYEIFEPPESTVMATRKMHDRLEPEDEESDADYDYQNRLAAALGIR
T5 sequence (P12259 other isoform, or with tags, fused parts or gaps R1545Q R1545Q, chain 2 of 2): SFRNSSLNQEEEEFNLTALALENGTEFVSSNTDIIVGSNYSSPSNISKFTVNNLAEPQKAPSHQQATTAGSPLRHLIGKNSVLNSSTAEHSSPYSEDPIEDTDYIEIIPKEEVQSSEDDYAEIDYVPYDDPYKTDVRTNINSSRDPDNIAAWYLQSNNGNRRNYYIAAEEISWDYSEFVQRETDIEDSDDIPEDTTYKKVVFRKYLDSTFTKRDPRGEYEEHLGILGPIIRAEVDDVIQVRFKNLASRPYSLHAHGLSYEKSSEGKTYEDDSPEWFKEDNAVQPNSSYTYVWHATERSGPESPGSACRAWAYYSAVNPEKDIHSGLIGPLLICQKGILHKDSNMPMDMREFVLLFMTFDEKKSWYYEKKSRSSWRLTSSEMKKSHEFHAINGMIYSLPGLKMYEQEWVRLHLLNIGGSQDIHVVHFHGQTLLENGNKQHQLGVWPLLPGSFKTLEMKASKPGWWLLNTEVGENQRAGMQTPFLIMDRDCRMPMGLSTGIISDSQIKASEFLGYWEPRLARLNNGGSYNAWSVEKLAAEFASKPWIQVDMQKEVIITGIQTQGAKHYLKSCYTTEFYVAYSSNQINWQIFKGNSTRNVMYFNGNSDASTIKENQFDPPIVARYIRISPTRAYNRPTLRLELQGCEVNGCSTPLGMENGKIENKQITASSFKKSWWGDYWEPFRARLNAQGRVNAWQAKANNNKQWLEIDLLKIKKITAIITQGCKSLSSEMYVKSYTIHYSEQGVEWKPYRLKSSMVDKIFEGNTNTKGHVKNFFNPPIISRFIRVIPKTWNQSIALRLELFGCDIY
Procedure: as §2, §1

FV-810^QQ [5] = target: T4, FV-810^QQ; experiment: as above
Procedure: as §2, §1

B1: Oregon Green 488 maleimide-modified BR (OG488-BR) (peptide)
peptide: C(Oregon Green 488 maleimide)SRAWGESTPLANKPGKQSGHPKFPRVRHKSLQVRQDGGKSRLKKSQFLIKTRKKKKEK
notes: also called fluorescently labeled FVBR
Question: For B1, which Kd [1] is on record?
Answer: 2.07 nM

Question: What about the Kd [2] of the same binder?
Answer: 2.1 nM

Question: What about the Kd (FV-810^R709Q) of the same binder?
Answer: 7.1 nM

Question: What about the Kd (FV-810^R1545Q) of the same binder?
Answer: 2 nM

Question: And the Kd (FV-810^QQ [3])?
Answer: 0.31 nM

Question: What about the Kd [4] of the same binder?
Answer: 30.3 nM

Question: What about the Kd (FV-810^QQ [5]) of the same binder?
Answer: 1.3 nM
